# From paper PMC3870021
# What was measured:
# EPCR (Homo sapiens) = EPCR (Homo sapiens) (UniProt Q9UNN8); conditions: cited from earlier work
# [1] = molecular target: recombinant human EPCR (extracellular domain Met1-Thr209, C-terminal poly-histidine tag) (human) (UniProt Q9UNN8); assay: SPR
# recombinant human EPCR (extracellular domain Met1-Thr209, C-terminal poly-histidine tag) (human), sequence (Q9UNN8 18-209): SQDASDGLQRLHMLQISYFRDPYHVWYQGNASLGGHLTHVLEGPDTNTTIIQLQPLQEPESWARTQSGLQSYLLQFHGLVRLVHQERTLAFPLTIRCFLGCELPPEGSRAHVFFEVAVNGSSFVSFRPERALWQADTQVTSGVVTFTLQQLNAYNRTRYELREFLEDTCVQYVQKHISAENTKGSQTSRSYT
# EPCR (Homo sapiens), sequence (Q9UNN8 18-210): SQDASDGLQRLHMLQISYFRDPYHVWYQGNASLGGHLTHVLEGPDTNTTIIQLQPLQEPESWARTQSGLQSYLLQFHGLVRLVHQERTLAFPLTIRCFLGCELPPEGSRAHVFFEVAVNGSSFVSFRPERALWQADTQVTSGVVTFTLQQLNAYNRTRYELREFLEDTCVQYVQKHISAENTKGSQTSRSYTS
substance,measurement,setting,value
Activated protein C (from UniProt P04070),Kd,EPCR (Homo sapiens),32 nM
activated protein C (commercial human purified APC) (from UniProt P04070 43-197) (enzyme),Kd,[1],1000 nM
recombinant full-length DC8-containing PfEMP1 IT4VAR20 (natural protein),Kd,[1],10 nM
